According to the supplement of paper PMC7125110:
± gives the standard error. This sample holds only a part of the variants without activity.

B1: glmS ribozyme (parent)
chain: AUAAAAGCGCCAGAACUACAGAAAUGUAGUUGACGAGGAGGAGGUUUAUCGAAUUUUCGGCGGAUGCCUCCAAA

Variants of: B1
Experiment: self-cleavage kobs at 640 uM GlcN6P; higher = faster cleavage; RNA array
Settings: with glucosamine-6-phosphate
Outline: (§1)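 Tiles bearing barcoded ribozyme variants, transcribed in situ by E. coli RNA polymerase on sequenced MiSeq chips, were imaged over ~14 h at 37 °C using a hybridised Cy3 probe. Glucosamine-6-phosphate was supplied at 40 μM to 10 mM in HEPES/KCl/Mg(OAc)2 buffer. kobs came from one- or two-exponential decay fits to normalised per-tile medians, and weighted Michaelis–Menten fits then provided kcat and KM.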

Variant	self-cleavage kobs at 640 uM GlcN6P
A12C A52U C71U	4.93e-05 ± 1.4e-05 s⁻¹
G7U C61U C68G	0.00114 ± 0.00049 s⁻¹
A6G G40A U54G C67A	< 1e-05 s⁻¹
G13U G35U C50U G66C	< 1e-05 s⁻¹
G9A G37A U56G	< 1e-05 s⁻¹
C8U G62A C70U	6.07e-05 ± 2.6e-05 s⁻¹
G38U G43C A53U	< 1e-05 s⁻¹
C11U U54G C58A C67G	0.000225 ± 7.2e-05 s⁻¹
A42U G51C G59U	< 1e-05 s⁻¹
C8G A14U U49G A53U C61U	< 1e-05 s⁻¹
A12C U30G U45C C50A A52U	< 1e-05 s⁻¹
A39G G60A U69G	< 1e-05 s⁻¹
C34A G43A G51C U56G	< 1e-05 s⁻¹
C16G U31G U54G	0.000146 ± 3.7e-05 s⁻¹
A24C A52U G59A	< 1e-05 s⁻¹
C34U G38U G43C	< 1e-05 s⁻¹
G9C G37C C70G	< 1e-05 s⁻¹
U55G U56A C71G	8.05e-05 ± 1.8e-05 s⁻¹
G38A G59C G62U	< 1e-05 s⁻¹
A15G C16G U46G	9.78e-05 ± 2.8e-05 s⁻¹
G59C G66C	< 1e-05 s⁻¹
A33G G40C G41C G43A U49A	< 1e-05 s⁻¹
A14G U30A A36U C58U G66U	< 1e-05 s⁻¹

Variant	self-cleavage kobs at 640 uM GlcN6P
G29C U65G C67G	0.000341 ± 0.00016 s⁻¹
U31A C34U G51U	< 1e-05 s⁻¹
A14G G32C G63C G66U U69G	< 1e-05 s⁻¹
A14C C16A C71G	6.58e-05 ± 2.7e-05 s⁻¹
G7A C10U G29A U30G	< 1e-05 s⁻¹
U54A C61G C71G	7.31e-05 ± 1.7e-05 s⁻¹
G7A A53C C68U	< 1e-05 s⁻¹
G7C A12U A15C	< 1e-05 s⁻¹
A12G G13U G62A	< 1e-05 s⁻¹
A14G G32A G60A C61A C67A C70U	0.000302 ± 0.00012 s⁻¹
A12C U54G C68G	4.37e-05 ± 1.2e-05 s⁻¹
G9U C16A G59U G60U	< 1e-05 s⁻¹
C11A G37C G62A	< 1e-05 s⁻¹
A33C G38C G51C A64C	< 1e-05 s⁻¹
G41U U47G C50G	< 1e-05 s⁻¹
G7U G13U A15U C50A G51A G60U C67A C71A	0.000375 ± 0.00012 s⁻¹
C11G G13C A15G G43U G63C	< 1e-05 s⁻¹
A6C A53U C70U	6.59e-05 ± 3.2e-05 s⁻¹
A36C G63A G66A	< 1e-05 s⁻¹
G41U G44U U45C	< 1e-05 s⁻¹
C11U U55G C70A	8.31e-05 ± 3.3e-05 s⁻¹
A14C A42G G66A	0.000473 ± 0.00012 s⁻¹
A12C U54C C71U	0.00422 ± 0.0017 s⁻¹

Variant	self-cleavage kobs at 640 uM GlcN6P
G35C C67G C71G	< 1e-05 s⁻¹
A6G C50G G51A	< 1e-05 s⁻¹
G7U A15C A39C	< 1e-05 s⁻¹
G29C A39C C61G	< 1e-05 s⁻¹
G13U G51C G62C	< 1e-05 s⁻¹
G9U U31A	< 1e-05 s⁻¹
C34U G43U G59A G62C C67A	< 1e-05 s⁻¹
C11U U56A C70G	0.000217 ± 5.8e-05 s⁻¹
A6G C50G A52U G59U	< 1e-05 s⁻¹
A39C A42G G60C	< 1e-05 s⁻¹
U30C A33G A52G	< 1e-05 s⁻¹
A64C U65C	< 1e-05 s⁻¹
G9A G44C C68U U69A	< 1e-05 s⁻¹
C34U G43C	< 1e-05 s⁻¹
G13U G29U A39G	0.000115 ± 2.8e-05 s⁻¹
C10U A52C G66A	< 1e-05 s⁻¹
A12G C58G C71U	9.42e-05 ± 1.7e-05 s⁻¹
U31G U45C A53G	0.000175 ± 3.2e-05 s⁻¹
G7A A15U U56G C58A	< 1e-05 s⁻¹
G35C G40C G60C	< 1e-05 s⁻¹
G40U G59C C71U	< 1e-05 s⁻¹
A6U U55G A64C	< 1e-05 s⁻¹
U47G U49A A52G	< 1e-05 s⁻¹

Variant	self-cleavage kobs at 640 uM GlcN6P
C8A A33U U55G	< 1e-05 s⁻¹
C11A G59A C61G C70A	0.000163 ± 7.6e-05 s⁻¹
G13C G29C G44U C50A G62C	< 1e-05 s⁻¹
G37U A39U A52C G59A	< 1e-05 s⁻¹
U46G C50U A53C A64U	< 1e-05 s⁻¹
U46G U55G U69G	0.000454 ± 0.00015 s⁻¹
C8G A14C G63A	< 1e-05 s⁻¹
A42U A53U G59C G62C	< 1e-05 s⁻¹
C16U G51A G63A G66A	< 1e-05 s⁻¹
G26U U31C U47A A64G	0.000213 ± 6.9e-05 s⁻¹
A33U U57G C68G	0.000105 ± 2.8e-05 s⁻¹
G13C A15C A52U G66C	< 1e-05 s⁻¹
G32C G35U G59A	< 1e-05 s⁻¹
G9C C16G G38U U65A	< 1e-05 s⁻¹
A14C U49G U54G C68G	7.91e-05 ± 3.6e-05 s⁻¹
C8G C10A G38U A52G	< 1e-05 s⁻¹
A14G G29C A33C	< 1e-05 s⁻¹
A15C A48U U49G G62U	< 1e-05 s⁻¹
G29U G35C A52G	< 1e-05 s⁻¹
G7U C16A G37U U45G	< 1e-05 s⁻¹
C10G A14G A36C G62U	< 1e-05 s⁻¹
G37C A52C	< 1e-05 s⁻¹

Variants of: B1
Experiment: self-cleavage kobs at 2500 uM GlcN6P; higher = faster cleavage; RNA array
Settings: with glucosamine-6-phosphate
Outline: as §1

Variant	self-cleavage kobs at 2500 uM GlcN6P
A12C A52U C71U	0.000116 ± 2.4e-05 s⁻¹
G9A C50G U55A C67G	4.95e-05 ± 1.9e-05 s⁻¹
A6G G40A U54G C67A	< 1e-05 s⁻¹
A33C U49C C70U	< 1e-05 s⁻¹
G38U G43C A53U	< 1e-05 s⁻¹
G13U G40A A42C U65G	< 1e-05 s⁻¹
C11U U54G C58A C67G	5.14e-05 ± 2e-05 s⁻¹
G41C A52C U55G G60C C68U	< 1e-05 s⁻¹
U30G U56G C71A	0.000262 ± 6.3e-05 s⁻¹
C16G U31G U54G	0.000327 ± 5.9e-05 s⁻¹
G9C G37C C70G	< 1e-05 s⁻¹
U30A C50G U56A C67U	7.78e-05 ± 1.9e-05 s⁻¹
A15G C16G U46G	0.000248 ± 9.3e-05 s⁻¹
A39C G44C C67A	0.000176 ± 4.5e-05 s⁻¹
G41U C50U G51U	< 1e-05 s⁻¹
A14U G29A G40U U45A C50G C71G	< 1e-05 s⁻¹
A33G G40C G41C G43A U49A	< 1e-05 s⁻¹
A48U U56A	9.99e-05 ± 3.4e-05 s⁻¹
U31A C34U G51U	< 1e-05 s⁻¹
A14G G32C G63C G66U U69G	< 1e-05 s⁻¹
A14C C16A C71G	4.2e-05 ± 2.1e-05 s⁻¹
U31C C34A G41U U57G G60C	< 1e-05 s⁻¹
A15C U55A G60C	< 1e-05 s⁻¹

Variant	self-cleavage kobs at 2500 uM GlcN6P
A36C C61G G63U C68A	0.000112 ± 3.9e-05 s⁻¹
A48G C50G A52U	< 1e-05 s⁻¹
A39U G59A A64C	< 1e-05 s⁻¹
C11U U49C U56G	< 1e-05 s⁻¹
U54A C61G C71G	0.000139 ± 4.6e-05 s⁻¹
G7A A53C C68U	< 1e-05 s⁻¹
G9A A33U A39C A42U U46G U55A G60U A64U	< 1e-05 s⁻¹
G9C A15C A33C U46A U65G	< 1e-05 s⁻¹
U30A U31A G40A U57G	< 1e-05 s⁻¹
A12C U54G C68G	5.51e-05 ± 1.5e-05 s⁻¹
C50A U65G C67A	8.64e-05 ± 2.2e-05 s⁻¹
G29C A42G C67G	0.000111 ± 5.1e-05 s⁻¹
G9U C16A G59U G60U	< 1e-05 s⁻¹
A12G C68A C71A	< 1e-05 s⁻¹
A12G U30A U69C	5.49e-05 ± 1.7e-05 s⁻¹
C11A A12G G44U C71A	< 1e-05 s⁻¹
U57A C58A C70G	0.000143 ± 3.9e-05 s⁻¹
C10G C34G A48C	< 1e-05 s⁻¹
C11G A12C A48C	< 1e-05 s⁻¹
C11G G13C A15G G43U G63C	< 1e-05 s⁻¹
C34A A42C A52U C71A	< 1e-05 s⁻¹
G41C A42G C70A	6.34e-05 ± 1.5e-05 s⁻¹
G41U G44U U45C	< 1e-05 s⁻¹

Variant	self-cleavage kobs at 2500 uM GlcN6P
C11U U55G C70A	0.000101 ± 2.5e-05 s⁻¹
A12C U54C C71U	0.0234 ± 0.0081 s⁻¹
A6G C50G G51A	< 1e-05 s⁻¹
A15G U55A G66C	0.000727 ± 0.00013 s⁻¹
C10A A42G U55G C67U	< 1e-05 s⁻¹
C11U G29C G44U G63U U65C C67U C71U	< 1e-05 s⁻¹
G9U U31A	< 1e-05 s⁻¹
C34U G43U G59A G62C C67A	< 1e-05 s⁻¹
C10U G13U A64C	< 1e-05 s⁻¹
C11U U56A C70G	0.000145 ± 3e-05 s⁻¹
A39C A42G G60C	< 1e-05 s⁻¹
G7U G9U U56A G59U	< 1e-05 s⁻¹
U30A G43C G51C C67G	< 1e-05 s⁻¹
A12U G29C A36U G44U C61G	< 1e-05 s⁻¹
A14G G32U U55G	0.000962 ± 0.00018 s⁻¹
C11G C61A G62C	< 1e-05 s⁻¹
A36U U69G C71A	0.000556 ± 0.00021 s⁻¹
C10A C16G C50A C58G C61U	6.15e-05 ± 1.9e-05 s⁻¹
G13U G29U A39G	7.21e-05 ± 2.3e-05 s⁻¹
C10U A52C G66A	< 1e-05 s⁻¹
A12G C58G C71U	3.81e-05 ± 1.2e-05 s⁻¹
C11U A15C G63U U65A C67A	< 1e-05 s⁻¹
G44A G66U C67G	0.00142 ± 0.00035 s⁻¹

Variant	self-cleavage kobs at 2500 uM GlcN6P
G13U U57G U65C	< 1e-05 s⁻¹
U31G U45C A53G	0.000528 ± 9.1e-05 s⁻¹
C11A C16U C71U	0.000223 ± 5.3e-05 s⁻¹
G40U G59C C71U	< 1e-05 s⁻¹
G7A A64C C67G U69G	< 1e-05 s⁻¹
G40C U56C C71A	9.43e-05 ± 2.2e-05 s⁻¹
C11G G43U C58A	< 1e-05 s⁻¹
G13C G29C G44U C50A G62C	< 1e-05 s⁻¹
U46G C50U A53C A64U	< 1e-05 s⁻¹
U46G U55G U69G	6.16e-05 ± 1.8e-05 s⁻¹
C8G A14C G63A	< 1e-05 s⁻¹
A42U A53U G59C G62C	< 1e-05 s⁻¹
A33U U57G C68G	0.000205 ± 7e-05 s⁻¹
G37A G43C C58G	< 1e-05 s⁻¹
G32C G35U G59A	< 1e-05 s⁻¹
A15U U56C U57G G63A C70G	0.000104 ± 4.9e-05 s⁻¹
G38U U54G C71A	< 1e-05 s⁻¹
G9C C16G G38U U65A	< 1e-05 s⁻¹
C8G C10A G38U A52G	< 1e-05 s⁻¹
G29U G35C A52G	< 1e-05 s⁻¹
C11A A14U C71U	6.69e-05 ± 2.1e-05 s⁻¹
A39G C50U U55A C70U	4.43e-05 ± 1.7e-05 s⁻¹
G37C A52C	< 1e-05 s⁻¹

Variants of: B1
Experiment: self-cleavage kobs at 10000 uM GlcN6P; higher = faster cleavage; RNA array
Settings: with glucosamine-6-phosphate
Outline: as §1

Variant	self-cleavage kobs at 10000 uM GlcN6P
A24C A52U G59A	< 1e-05 s⁻¹
G59C G66C	< 1e-05 s⁻¹
A33C G38C G51C A64C	< 1e-05 s⁻¹
A14C A42G G66A	0.00177 ± 0.0006 s⁻¹
C10A A42G U55G C67U	< 1e-05 s⁻¹
G9U U31A	< 1e-05 s⁻¹
A64C U65C	< 1e-05 s⁻¹
A36U U69G C71A	5.84e-05 ± 1.8e-05 s⁻¹
G13U U57G U65C	< 1e-05 s⁻¹
C8A A33U U55G	< 1e-05 s⁻¹
G13C G29C G44U C50A G62C	< 1e-05 s⁻¹
C11A A14U C71U	4.6e-05 ± 1.3e-05 s⁻¹
G37C A52C	< 1e-05 s⁻¹
